Sequences and labels used below:
T1: FcγRIIa type R extracellular domain with C-terminal His tag (human, UniProt P12318 34-217)
T1 chain: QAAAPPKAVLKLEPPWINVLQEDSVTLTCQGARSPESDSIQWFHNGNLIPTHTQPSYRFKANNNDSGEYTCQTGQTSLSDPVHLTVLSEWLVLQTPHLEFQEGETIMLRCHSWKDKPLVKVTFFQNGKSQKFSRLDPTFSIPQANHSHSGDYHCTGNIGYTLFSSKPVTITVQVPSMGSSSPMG

B1: IL6R-BF063/IL6R-L (antibody, human IgG1, kappa)
heavy: QVQLQESGPGLVKPSETLSLTCAVSGHSISHDHAWSWVRQPPGEGLEWIGFISYSGITNYNPSLQGRVTISRDNSKNTLYLQMNSLRAEDTAVYYCARSLARTTAMDYWGEGTLVTVSSASTKGPSVFPLAPSSKSTSGGTAALGCLVKDYFPEPVTVSWNSGALTSGVHTFPAVLQSSGLYSLSSVVTVPSSSLGTQTYICNVNHKPSNTKVDKKVEPKSCDKTHTCPPCPAPEYLGGDSVFLFPPKPKDTLMISRTPEVTCVVVDVSHEDPEVKFNWYVDGVEVHNAKTKPREEQYNSTYRVVSVLTVLHQDWLNGKEYKCKVSNAALPKPIEKTISKAKGQPREPQVYTLPPSRDELTKNQVSLTCLVKGFYPSDIAVEWESNGQPENNYKTTPPVLDSDGSFFLYSKLTVDKSRWQQGNVFSCSVMHEALHNHYTQESLSLSP
light: not shown
notes: alteration printed: L234Y/P236D/K326A/A330K; also called IL6R-BF089/IL6R-L; copies: 2 + 2
B2: IL6R-BF176/IL6R-L (antibody, human IgG1, kappa)
heavy: QVQLQESGPGLVKPSETLSLTCAVSGHSISHDHAWSWVRQPPGEGLEWIGFISYSGITNYNPSLQGRVTISRDNSKNTLYLQMNSLRAEDTAVYYCARSLARTTAMDYWGEGTLVTVSSASTKGPSVFPLAPSSKSTSGGTAALGCLVKDYFPEPVTVSWNSGALTSGVHTFPAVLQSSGLYSLSSVVTVPSSSLGTQTYICNVNHKPSNTKVDKKVEPKSCDKTHTCPPCPAPDLLGGDSVFLFPPKPKDTLMISRTPEVTCVVVDVSHEDPEVKFNWYVDGVEVHNAKTKPREEQYNSTYRVVSVLTVLHQDWLNGKEYKCKVSNDALPKPIEKTISKAKGQPREPQVYTLPPSRDELTKNQVSLTCLVKGFYPSDIAVEWESNGQPENNYKTTPPVLDSDGSFFLYSKLTVDKSRWQQGNVFSCSVMHEALHNHYTQESLSLSP
light: not shown
notes: alteration printed: B233D/P238D/K326D/A330K; also called IL6R-BF175/IL6R-L; copies: 2 + 2
B3: IL6R-BF147/IL6R-L (antibody, human IgG1, kappa)
heavy: QVQLQESGPGLVKPSETLSLTCAVSGHSISHDHAWSWVRQPPGEGLEWIGFISYSGITNYNPSLQGRVTISRDNSKNTLYLQMNSLRAEDTAVYYCARSLARTTAMDYWGEGTLVTVSSASTKGPSVFPLAPSSKSTSGGTAALGCLVKDYFPEPVTVSWNSGALTSGVHTFPAVLQSSGLYSLSSVVTVPSSSLGTQTYICNVNHKPSNTKVDKKVEPKSCDKTHTCPPCPAPEYLGDDSVFLFPPKPKDTLMISRTPEVTCVVVDVSHEDPEVKFNWYVDGVEVHNAKTKPREEQYNSTYRVVSVLTVLHQDWLNGKEYKCKVSNAALPKPIEKTISKAKGQPREPQVYTLPPSRDELTKNQVSLTCLVKGFYPSDIAVEWESNGQPENNYKTTPPVLDSDGSFFLYSKLTVDKSRWQQGNVFSCSVMHEALHNHYTQESLSLSP
light: not shown
notes: alteration printed: L234Y/G237D/P238D/K326A/A330K; copies: 2 + 2
B4: IL6R-BF185/IL6R-L (H chain SEQ ID NO 100) (antibody, human IgG1, kappa)
heavy: QVQLQESGPGLVKPSETLSLTCAVSGHSISHDHAWSWVRQPPGEGLEWIGFISYSGITNYNPSLQGRVTISRDNSKNTLYLQMNSLRAEDTAVYYCARSLARTTAMDYWGEGTLVTVSSASTKGPSVFPLAPSSKSTSGGTAALGCLVKDYFPEPVTVSWNSGALTSGVHTFPAVLQSSGLYSLSSVVTVPSSSLGTQTYICNVNHKPSNTKVDKKVEPKSCDKTHTCPPCPAPDYLGDDSVFLFPPKPKDTLMISRTPEVTCVVVDVSHEDGEVKFNWYVDGVEVHNAKTKPREEQYNSTYRVVSVLTVLHQDWLNGKEYKCKVSNAALPKPIEKTISKAKGQPREPQVYTLPPSRDELTKNQVSLTCLVKGFYPSDIAVEWESNGQPENNYKTTPPVLDSDGSFFLYSKLTVDKSRWQQGNVFSCSVMHEALHNHYTQESLSLSP
light: not shown
notes: alteration printed: B233D/L234Y/G237D/P238D/P271G/K326A/A330K; copies: 2 + 2
B5: IL6R-BF185/IL6R-L (H chain SEQ ID NO 98) (antibody, human IgG1, kappa)
heavy: QVQLQESGPGLVKPSETLSLTCAVSGHSISHDHAWSWVRQPPGEGLEWIGFISYSGITNYNPSLQGRVTISRDNSKNTLYLQMNSLRAEDTAVYYCARSLARTTAMDYWGEGTLVTVSSASTKGPSVFPLAPSSKSTSGGTAALGCLVKDYFPEPVTVSWNSGALTSGVHTFPAVLQSSGLYSLSSVVTVPSSSLGTQTYICNVNHKPSNTKVDKKVEPKSCDKTHTCPPCPAPDYLGGDSVFLFPPKPKDTLMISRTPEVTCVVVDVSHEDGEVKFNWYVDGVEVHNAKTKPREEQYNSTYRVVSVLTVLHQDWLNGKEYKCKVSNAALPKPIEKTISKAKGQPREPQVYTLPPSRDELTKNQVSLTCLVKGFYPSDIAVEWESNGQPENNYKTTPPVLDSDGSFFLYSKLTVDKSRWQQGNVFSCSVMHEALHNHYTQESLSLSP
light: not shown
notes: alteration printed: B233D/L234Y/P238D/P271G/K326A/A330K; also called IL6R-BF138/IL6R-L; copies: 2 + 2
B6: IL6R-BF186/IL6R-L (antibody, human IgG1, kappa)
heavy: QVQLQESGPGLVKPSETLSLTCAVSGHSISHDHAWSWVRQPPGEGLEWIGFISYSGITNYNPSLQGRVTISRDNSKNTLYLQMNSLRAEDTAVYYCARSLARTTAMDYWGEGTLVTVSSASTKGPSVFPLAPSSKSTSGGTAALGCLVKDYFPEPVTVSWNSGALTSGVHTFPAVLQSSGLYSLSSVVTVPSSSLGTQTYICNVNHKPSNTKVDKKVEPKSCDKTHTCPPCPAPDYLGDDSVFLFPPKPKDTLMISRTPEVTCVVVDVSHEDGEVKFNWYVDGVEVHNAKTKPREEQDNSTYRVVSVLTVLHQDWLNGKEYKCKVSNAALPKPIEKTISKAKGQPREPQVYTLPPSRDELTKNQVSLTCLVKGFYPSDIAVEWESNGQPENNYKTTPPVLDSDGSFFLYSKLTVDKSRWQQGNVFSCSVMHEALHNHYTQESLSLSP
light: not shown
notes: alteration printed: B233D/L234Y/G237D/P238D/P271G/Y298D/K326A/A330K; copies: 2 + 2
B7: IL6R-BF188/IL6R-L (H chain SEQ ID NO 103) (antibody, human IgG1, kappa)
heavy: QVQLQESGPGLVKPSETLSLTCAVSGHSISHDHAWSWVRQPPGEGLEWIGFISYSGITNYNPSLQGRVTISRDNSKNTLYLQMNSLRAEDTAVYYCARSLARTTAMDYWGEGTLVTVSSASTKGPSVFPLAPSSKSTSGGTAALGCLVKDYFPEPVTVSWNSGALTSGVHTFPAVLQSSGLYSLSSVVTVPSSSLGTQTYICNVNHKPSNTKVDKKVEPKSCDKTHTCPPCPAPDLLGDDSVFLFPPKPKDTLMISRTPEVTCVVVDVSDEDGEVKFNWYVDGVEVHNAKTKPREEQYNSTYRVVSVLTVLHQDWLNGKEYKCKVSNKALPKPIEKTISKAKGQPREPQVYTLPPSRDELTKNQVSLTCLVKGFYPSDIAVEWESNGQPENNYKTTPPVLDSDGSFFLYSKLTVDKSRWQQGNVFSCSVMHEALHNHYTQESLSLSP
light: not shown
notes: alteration printed: B233D/G237D/P238D/H268D/P271G/A330K; copies: 2 + 2
B8: IL6R-BF179/IL6R-L (antibody, human IgG1, kappa)
heavy: QVQLQESGPGLVKPSETLSLTCAVSGHSISHDHAWSWVRQPPGEGLEWIGFISYSGITNYNPSLQGRVTISRDNSKNTLYLQMNSLRAEDTAVYYCARSLARTTAMDYWGEGTLVTVSSASTKGPSVFPLAPSSKSTSGGTAALGCLVKDYFPEPVTVSWNSGALTSGVHTFPAVLQSSGLYSLSSVVTVPSSSLGTQTYICNVNHKPSNTKVDKKVEPKSCDKTHTCPPCPAPELLGDDSVFLFPPKPKDTLMISRTPEVTCVVVDVSHEDGEVKFNWYVDGVEVHNAKTKPREEQYNSTYRVVSVLTVLHQDWLNGKEYKCKVSNAALPKPIEKTISKAKGQPREPQVYTLPPSRDELTKNQVSLTCLVKGFYPSDIAVEWESNGQPENNYKTTPPVLDSDGSFFLYSKLTVDKSRWQQGNVFSCSVMHEALHNHYTQESLSLSP
light: not shown
notes: alteration printed: G237D/P238D/P271G/K326A/A330K; copies: 2 + 2
B9: IL6R-BF187/IL6R-L (antibody, human IgG1, kappa)
heavy: QVQLQESGPGLVKPSETLSLTCAVSGHSISHDHAWSWVRQPPGEGLEWIGFISYSGITNYNPSLQGRVTISRDNSKNTLYLQMNSLRAEDTAVYYCARSLARTTAMDYWGEGTLVTVSSASTKGPSVFPLAPSSKSTSGGTAALGCLVKDYFPEPVTVSWNSGALTSGVHTFPAVLQSSGLYSLSSVVTVPSSSLGTQTYICNVNHKPSNTKVDKKVEPKSCDKTHTCPPCPAPEYLGGDSVFLFPPKPKDTLMISRTPEVTCVVVDVSHEDGEVKFNWYVDGVEVHNAKTKPREEQYNSTYRVVSVLTVLHQDWLNGKEYKCKVSNAALPKPIEKTISKAKGQPREPQVYTLPPSRDELTKNQVSLTCLVKGFYPSDIAVEWESNGQPENNYKTTPPVLDSDGSFFLYSKLTVDKSRWQQGNVFSCSVMHEALHNHYTQESLSLSP
light: not shown
notes: alteration printed: L234Y/P238D/P271G/K326A/A330K; copies: 2 + 2
B10: IL6R-BF085/IL6R-L (H chain SEQ ID NO 72) (antibody, human IgG1, kappa)
heavy: QVQLQESGPGLVKPSETLSLTCAVSGHSISHDHAWSWVRQPPGEGLEWIGFISYSGITNYNPSLQGRVTISRDNSKNTLYLQMNSLRAEDTAVYYCARSLARTTAMDYWGEGTLVTVSSASTKGPSVFPLAPSSKSTSGGTAALGCLVKDYFPEPVTVSWNSGALTSGVHTFPAVLQSSGLYSLSSVVTVPSSSLGTQTYICNVNHKPSNTKVDKKVEPKSCDKTHTCPPCPAPELLGGDSVFLFPPKPKDTLMISRTPEVTCVVVDVSHEDPEVKFNWYVDGVEVHNAKTKPREEQYNSTYRVVSVLTVLHQDWLNGKEYKCKVSNAALPKPIEKTISKAKGQPREPQVYTLPPSRDELTKNQVSLTCLVKGFYPSDIAVEWESNGQPENNYKTTPPVLDSDGSFFLYSKLTVDKSRWQQGNVFSCSVMHEALHNHYTQESLSLSP
light: not shown
notes: alteration printed: P238D/K326A/A330K; also called IL6R-BF086/IL6R-L; copies: 2 + 2
B11: IL6R-BF085/IL6R-L (H chain SEQ ID NO 71) (antibody, human IgG1, kappa)
heavy: QVQLQESGPGLVKPSETLSLTCAVSGHSISHDHAWSWVRQPPGEGLEWIGFISYSGITNYNPSLQGRVTISRDNSKNTLYLQMNSLRAEDTAVYYCARSLARTTAMDYWGEGTLVTVSSASTKGPSVFPLAPSSKSTSGGTAALGCLVKDYFPEPVTVSWNSGALTSGVHTFPAVLQSSGLYSLSSVVTVPSSSLGTQTYICNVNHKPSNTKVDKKVEPKSCDKTHTCPPCPAPELLGDDSVFLFPPKPKDTLMISRTPEVTCVVVDVSHEDPEVKFNWYVDGVEVHNAKTKPREEQYNSTYRVVSVLTVLHQDWLNGKEYKCKVSNKALPKPIEKTISKAKGQPREPQVYTLPPSRDELTKNQVSLTCLVKGFYPSDIAVEWESNGQPENNYKTTPPVLDSDGSFFLYSKLTVDKSRWQQGNVFSCSVMHEALHNHYTQESLSLSP
light: not shown
notes: alteration printed: G237D/P238D/A330K; also called IL6R-BF065/IL6R-L; copies: 2 + 2

Among the data in patent US20230174655A1 (published 2023) are Kd values, retold here.

The target in the assay is T1, FcγRIIa type R extracellular domain …. Nature of the assay: SPR (Biacore), antibody captured, FcgR analyte. The source says: In the table, SEQ ID NO refers to the SEQ ID NO of the H chain of the evaluated variant, and alteration refers to the alteration introduced into IL6R-B3 (SEQ ID NO: 40). […] Furthermore, KD(IIaR)/KD(IIb) and KD(IIaH)/KD(IIb) in the table respectively represent the value obtained by dividing the KD value of each variant for FcγRIIaR by the KD value of each variant for FcγRIIb, and the value obtained by dividing the KD value of each variant for FcγRIIaH by the KD value of each variant for FcγRIIb. KD(IIb) of the parent polypeptide/KD(IIb) of the altered polypeptide refers to the value obtained by dividing the KD value of the parent polypeptide for FcγRIIb by the KD value of each variant for FcγRIIb.
Kinetic analyses for calculating the KD values of each altered antibody for FcγR were performed according to the following method. First, antibodies of interest were captured onto the above-mentioned sensor chips, and an Fcγ receptor diluted with the running buffer was allowed to interact. The Biacore™ Evaluation Software was used to globally fit the measured results to the obtained sensorgram using the 1:1 Langmuir binding model, and the association rate constant ka (L/mol/s) and the dissociation rate constant kd (1/s) were calculated; and from those values the dissociation constants KD (mol/L) were calculated.
Background: SPR reads the build-up and loss of mass on a sensor chip optically.
By Kd is commonly meant the concentration at which binding is half-saturated. Read a high Kd as weaker binding. As for B1, the Kd is 64 nM.

Molecule B2 yielded a Kd of 69000 nM.

B3 came in with a Kd of 830 nM.

Molecule B4 registered a Kd of 880 nM. This Kd and that of the molecule before are within 1.5-fold of each other.

In turn, B5 returned a Kd of 26000 nM.

Molecule B6 came in with a Kd of 950 nM. This Kd is about 27-fold lower than that of the molecule before.

In turn, B7 displayed a Kd of 1000 nM.

B8 registered a Kd of 14 nM.

As for B9, the dissociation constant Kd was 2800 nM. Compared with the last molecule, the Kd is about 200-fold higher.

Take B10: the Kd was found to be 97 nM.

Consider B11, for which the Kd was 4200 nM.
